The text below walks through data of publication PMC2409314, “Expression of zebrafish pax6b in pancreas is regulated by two enhancers containing highly conserved cis-elements bound by PDX1, PBX and PREP factors”.

Experiment in all cases: EMSA; 2 ug nuclear extract or 1 ul ivt protein, 0.1 ng 32P ds oligo, 1 ug poly(dI-dC); antiserum preincubation 15 min at room temperature; buffer, salt and pH not given (by reference)
The target in one series is PDX1 (STF-1) (UniProt P52947 1-283). The note with it: protein: recombinant; label: 32P (Klenow); only top strand given; 5' GATC end, Klenow labelled.
Chain of PDX1 (STF-1) (P52947 whole entry, canonical isoform): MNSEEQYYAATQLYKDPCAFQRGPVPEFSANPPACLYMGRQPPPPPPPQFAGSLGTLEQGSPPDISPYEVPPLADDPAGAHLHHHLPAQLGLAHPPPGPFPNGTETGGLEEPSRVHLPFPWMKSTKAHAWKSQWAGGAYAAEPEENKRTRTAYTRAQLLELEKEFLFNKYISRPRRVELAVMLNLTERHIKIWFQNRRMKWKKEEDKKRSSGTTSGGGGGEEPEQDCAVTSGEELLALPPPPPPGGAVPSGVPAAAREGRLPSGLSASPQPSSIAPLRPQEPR
Series [1] has as its target PBX1a (long isoform);PREP1;PDX1 (STF-1) (;;, UniProt P41778;P55347;P52947 1-430;1-436;1-283, ||). The note with it: protein: ivt;ivt;recombinant; tags: ;;; copies: 1;1;1; label: 32P (Klenow); only top strand given; 5' GATC end, Klenow labelled.
The target in series [2] is T1, PBX1a (long isoform);PREP1 (;, UniProt P41778;P55347 1-430;1-436, |).
T1 sequence 1: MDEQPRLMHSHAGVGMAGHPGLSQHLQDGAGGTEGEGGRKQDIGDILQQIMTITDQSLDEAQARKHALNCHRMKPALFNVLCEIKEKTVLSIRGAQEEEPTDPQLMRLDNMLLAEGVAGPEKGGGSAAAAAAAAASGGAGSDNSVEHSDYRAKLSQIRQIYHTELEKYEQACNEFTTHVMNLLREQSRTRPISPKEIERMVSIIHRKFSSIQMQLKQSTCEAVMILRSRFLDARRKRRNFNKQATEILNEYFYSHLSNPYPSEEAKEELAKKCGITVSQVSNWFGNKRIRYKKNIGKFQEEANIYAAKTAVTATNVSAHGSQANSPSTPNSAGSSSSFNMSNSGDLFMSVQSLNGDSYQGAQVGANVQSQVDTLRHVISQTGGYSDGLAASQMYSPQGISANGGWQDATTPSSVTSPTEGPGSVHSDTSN
T1 sequence 2: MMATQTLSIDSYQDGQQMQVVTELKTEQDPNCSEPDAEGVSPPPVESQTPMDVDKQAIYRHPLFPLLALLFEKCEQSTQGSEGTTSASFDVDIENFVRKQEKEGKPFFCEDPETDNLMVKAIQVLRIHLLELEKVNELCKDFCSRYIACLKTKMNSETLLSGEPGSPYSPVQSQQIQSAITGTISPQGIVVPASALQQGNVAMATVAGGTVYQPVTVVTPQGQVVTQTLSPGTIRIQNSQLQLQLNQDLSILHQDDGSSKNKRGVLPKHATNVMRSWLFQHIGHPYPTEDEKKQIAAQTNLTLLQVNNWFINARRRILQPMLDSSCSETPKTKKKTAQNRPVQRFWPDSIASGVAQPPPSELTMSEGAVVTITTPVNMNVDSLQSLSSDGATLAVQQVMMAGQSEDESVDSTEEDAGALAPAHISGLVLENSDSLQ
The note with it: protein: ivt;ivt; tags: ;; copies: 1;1; label: 32P (Klenow); only top strand given; 5' GATC end, Klenow labelled.

Chain of PBX1a (long isoform);PREP1;PDX1 (STF-1) (P52947 whole entry, canonical isoform, one chain of several): as the sequence (P52947 whole entry, canonical isoform) above

B1: PC3b (dsDNA)
DNA 1: GATCTAGCTCTTAATTGTGGTT
DNA 2: AACCACAATTAAGAGCTAGATC
Regarding B1, the binding result with PDX1 (STF-1) is “binds”.

B2: PA1b (dsDNA)
DNA 1: GATCGCATCACGATCAATCACAGCGCT
DNA 2: AGCGCTGTGATTGATCGTGATGCGATC
As to B2, the binding result in series [1] and in series [2] was “binds” throughout.
